The subject of data set [1] is HeLa Kyoto. The experiment in a line: solubility in G1/S (NP-40 vs SDS abundance) (log2 ratio); higher = more soluble. The conditions noted are these: cell cycle stage: G1/S.
Data set [2] deals with HeLa Kyoto. The experiment in a line: melting temperature (median over replicates), in situ; higher = more thermally stable.
Data set [3] has as its system HeLa Kyoto. The experiment in a line: solubility change mitosis vs G1/S (difference of NP-40 vs SDS log2 ratios) (log2 ratio difference); higher = more soluble in mitosis.
Data set [4] deals with HeLa Kyoto. Put plainly: thermal stability score vs G1/S (z-score of summed log2 fold changes over temperatures); higher = more thermally stable than in G1/S.
Where [5] appears, read: cell cycle stage: early G1 (4.5 h after nocodazole release).
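Wherever melting temperature (median over replicates), in situ is given: HeLa Kyoto cells synchronized by double thymidine or nocodazole block, proteins quantified by TMT10plex mass spectrometry, three independent biological replicates.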
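Wherever solubility change mitosis vs G1/S (difference of NP-40 vs SDS log2 ratios) is given: synchronized HeLa Kyoto cells (double thymidine block for G1/S, nocodazole release for mitosis), protein amounts in NP-40 versus SDS lysates quantified by mass spectrometry, three biological replicates.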
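Wherever solubility in G1/S (NP-40 vs SDS abundance) is given: HeLa Kyoto cells arrested at G1/S by double thymidine block, proteins quantified by TMT10plex mass spectrometry in mild NP-40 versus SDS extracts, three biological replicates.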
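Wherever thermal stability score vs G1/S (z-score of summed log2 fold changes over temperatures) is given: synchronized HeLa Kyoto cells, proteins quantified by TMT10plex mass spectrometry, three biological replicates, mitosis taken 0.5 h after nocodazole release, G1/S directly after double thymidine block.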

For “MRTAGRDPVPRRSPRWRRAVPLCETSAGRRVTQLRGDDLRRPATMKGKERSPVKAKRSRGGEDSTSRGERSKKLGGSGGSNGSSSGKTDSGGGSRRSLHLDKSSSRGGSREYDTGGGSSSSRLHSYSSPSTKNSSGGGESRSSSRGGGGESRSSGAASSAPGGGDGAEYKTLKISELGSQLSDEAVEDGLFHEFKRFGDVSVKISHLSGSGSGDERVAFVNFRRPEDARAAKHARGRLVLYDRPLKIEAVYVSRRRSRSPLDKDTYPPSASVVGASVGGHRHPPGGGGGQRSLSPGGAALGYRDYRLQQLALGRLPPPPPPPLPRDLERERDYPFYERVRPAYSLEPRVGAGAGAAPFREVDEISPEDDQRANRTLFLGNLDITVTESDLRRAFDRFGVITEVDIKRPSRGQTSTYGFLKFENLDMSHRAKLAMSGKIIIRNPIKIGYGKATPTTRLWVGGLGPWVPLAALAREFDRFGTIRTIDYRKGDSWAYIQYESLDAAHAAWTHMRGFPLGGPDRRLRVDFADTEHRYQQQYLQPLPLTHYELVTDAFGHRAPDPLRGARDRTPPLLYRDRDRDLYPDSDWVPPPPPVRERSTRTAATSVPAYEPLDSLDRRRDGWSLDRDRGDRDLPSSRDQPRKRRLPEESGGRHLDRSPESDRPRKRHCAPSPDRSPELSSSRDRYNSDNDRSSRLLLERPSPIRDRRGSLEKSQGDKRDRKNSASAERDRKHRTTAPTEGKSPLKKEDRSDGSAPSTSTASSKLKSPSQKQDGGTAPVASASPKLCLAWQGMLLLKNSNFPSNMHLLQGDLQVASSLLVEGSTGGKVAQLKITQRLRLDQPKLDEVTRRIKVAGPNGYAILLAVPGSSDSRSSSSSAASDTATSTQRPLRNLVSYLKQKQAAGVISLPVGGNKDKENTGVLHAFPPCEFSQQFLDSPAKALAKSEEDYLVMIIVRGFGFQIGVRYENKKRENLALTLL [RBM15]”, in the data set with HeLa Kyoto [1], the “solubility in G1/S (log2)” value was -0.606. In addition, the melting temperature was determined as 46.7 °C in the data set with HeLa Kyoto [2] (cell cycle stage: G1/S) and 48.7 °C in the data set on HeLa Kyoto [2] (cell cycle stage: mitosis). In addition, in the data set with HeLa Kyoto [3], the “solubility change mitosis (log2)” value is 0.598. In addition, the thermal stability score with HeLa Kyoto [4] (setting [5]) came to 2.61; with HeLa Kyoto [4] (cell cycle stage: mitosis), 6.38.

Consider “MRLFVSDGVPGCLPVLAAAGRARGRAEVLISTVGPEDCVVPFLTRPKVPVLQLDSGNYLFSTSAICRYFFLLSGWEQDDLTNQWLEWEATELQPALSAALYYLVVQGKKGEDVLGSVRRALTHIDHSLSRQNCPFLAGETESLADIVLWGALYPLLQDPAYLPEELSALHSWFQTLSTQEPCQRAAETVLKQQGVLALRPYLQKQPQPSPAEGRAVTNEPEEEELATLSEEEIAMAVTAWEKGLESLPPLRPQQNPVLPVAGERNVLITSALPYVNNVPHLGNIIGCVLSADVFARYSRLRQWNTLYLCGTDEYGTATETKALEEGLTPQEICDKYHIIHADIYRWFNISFDIFGRTTTPQQTKITQDIFQQLLKRGFVLQDTVEQLRCEHCARFLADRFVEGVCPFCGYEEARGDQCDKCGKLINAVELKKPQCKVCRSCPVVQSSQHLFLDLPKLEKRLEEWLGRTLPGSDWTPNAQFITRSWLRDGLKPRCITRDLKWGTPVPLEGFEDKVFYVWFDATIGYLSITANYTDQWERWWKNPEQVDLYQFMAKDNVPFHSLVFPCSALGAEDNYTLVSHLIATEYLNYEDGKFSKSRGVGVFGDMAQDTGIPADIWRFYLLYIRPEGQDSAFSWTDLLLKNNSELLNNLGNFINRAGMFVSKFFGGYVPEMVLTPDDQRLLAHVTLELQHYHQLLEKVRIRDALRSILTISRHGNQYIQVNEPWKRIKGSEADRQRAGTVTGLAVNIAALLSVMLQPYMPTVSATIQAQLQLPPPACSILLTNFLCTLPAGHQIGTVSPLFQKLENDQIESLRQRFGGGQAKTSPKPAVVETVTTAKPQQIQALMDEVTKQGNIVRELKAQKADKNEVAAEVAKLLDLKKQLAVAEGKPPEAPKGKKKK [MARS]”, for which the “solubility in G1/S (log2)” value with HeLa Kyoto [1] was 0.171. Also, the melting temperature in the data set on HeLa Kyoto [2] (cell cycle stage: G1/S) came to 49.1 °C; with HeLa Kyoto [2] (cell cycle stage: mitosis) it was 49.4 °C. In addition, the “solubility change mitosis (log2)” value in the data set with HeLa Kyoto [3] is -0.109. Besides, the thermal stability score in the data set with HeLa Kyoto [4] (setting [5]) stood at 1.07; in the data set with HeLa Kyoto [4] (cell cycle stage: mitosis), 4.3.

Turning to “MKVVNLKQAILQAWKERWSDYQWAINMKKFFPKGATWDILNLADALLEQAMIGPSPNPLILSYLKYAISSQMVSYSSVLTAISKFDDFSRDLCVQALLDIMDMFCDRLSCHGKAEECIGLCRALLSALHWLLRCTAASAERLREGLEAGTPAAGEKQLAMCLQRLEKTLSSTKNRALLHIAKLEEASSWTAIEHSLLKLGEILANLSNPQLRSQAEQCGTLIRSIPTMLSVHAEQMHKTGFPTVHAVILLEGTMNLTGETQSLVEQLTMVKRMQHIPTPLFVLEIWKACFVGLIESPEGTEELKWTAFTFLKIPQVLVKLKKYSHGDKDFTEDVNCAFEFLLKLTPLLDKADQRCNCDCTNFLLQECGKQGLLSEASVNNLMAKRKADREHAPQQKSGENANIQPNIQLILRAEPTVTNILKTMDADHSKSPEGLLGVLGHMLSGKSLDLLLAAAAATGKLKSFARKFINLNEFTTYGSEESTKPASVRALLFDISFLMLCHVAQTYGSEVILSESRTGAEVPFFETWMQTCMPEEGKILNPDHPCFRPDSTKVESLVALLNNSSEMKLVQMKWHEACLSISAAILEILNAWENGVLAFESIQKITDNIKGKVCSLAVCAVAWLVAHVRMLGLDEREKSLQMIRQLAGPLFSENTLQFYNERVVIMNSILERMCADVLQQTATQIKFPSTGVDTMPYWNLLPPKRPIKEVLTDIFAKVLEKGWVDSRSIHIFDTLLHMGGVYWFCNNLIKELLKETRKEHTLRAVELLYSIFCLDMQQVTLVLLGHILPGLLTDSSKWHSLMDPPGTALAKLAVWCALSSYSSHKGQASTRQKKRHREDIEDYISLFPLDDVQPSKLMRLLSSNEDDANILSSPTDRSMSSSLSASQLHTVNMRDPLNRVLANLFLLISSILGSRTAGPHTQFVQWFMEECVDCLEQGGRGSVLQFMPFTTVSELVKVSAMSSPKVVLAITDLSLPLGRQVAAKAIAAL [MED24]”, in the data set with HeLa Kyoto [1], the “solubility in G1/S (log2)” value is -0.322. The values for the melting temperature in the data set on HeLa Kyoto [2] (cell cycle stage: G1/S) and with HeLa Kyoto [2] (cell cycle stage: mitosis) were 50.8 °C and 52.2 °C, respectively. Besides, the “solubility change mitosis (log2)” value in the data set with HeLa Kyoto [3] came to 0.0385. The thermal stability score stood at 1.11 in the data set on HeLa Kyoto [4] (setting [5]) and 1.86 in the data set on HeLa Kyoto [4] (cell cycle stage: mitosis).

On to TMED2, for which the “solubility in G1/S (log2)” value in the data set with HeLa Kyoto [1] amounted to 0.169. The figures for the melting temperature in the data set with HeLa Kyoto [2] (cell cycle stage: G1/S) and in the data set on HeLa Kyoto [2] (cell cycle stage: mitosis) were 55.5 °C and 55.3 °C, respectively. The “solubility change mitosis (log2)” value in the data set with HeLa Kyoto [3] was -0.171. The thermal stability score in the data set on HeLa Kyoto [4] (setting [5]) is 1.23; in the data set on HeLa Kyoto [4] (cell cycle stage: mitosis), 2.29.

For the substance “MSPWSWFLLQTLCLLPTGAASRRGAPGTANCELKPQQSELNSFLWTIKRDPPSYFFGTIHVPYTRVWDFIPDNSKEAFLQSSIVYFELDLTDPYTISALTSCQMLPQGENLQDVLPRDIYCRLKRHLEYVKLMMPLWMTPDQRGKGLYADYLFNAIAGNWERKRPVWVMLMVNSLTEVDIKSRGVPVLDLFLAQEAERLRKQTGAVEKVEEQCHPLNGLNFSQVIFALNQTLLQQESLRAGSLQIPYTTEDLIKHYNCGDLSSVILSHDSSQVPNFINATLPPQERITAQEIDSYLRRELIYKRNERIGKRVKALLEEFPDKGFFFAFGAGHFMGNNTVLDVLRREGYEVEHAPAGRPIHKGKSKKTSTRPTLSTIFAPKVPTLEVPAPEAVSSGHSTLPPLVSRPGSADTPSEAEQRFRKKRRRSQRRPRLRQFSDLWVRLEESDIVPQLQVPVLDRHISTELRLPRRGHSHHSQMVASSACLSLWTPVFWVLVLAFQTETPLL [TRABD2A]”, the “solubility in G1/S (log2)” value with HeLa Kyoto [1] turned out to be 0.299. Besides, the melting temperature in the data set on HeLa Kyoto [2] (cell cycle stage: G1/S) amounted to 53.9 °C; in the data set with HeLa Kyoto [2] (cell cycle stage: mitosis), 53.4 °C. Further, in the data set with HeLa Kyoto [3], the “solubility change mitosis (log2)” value was -0.031. For the same substance, the thermal stability score came out at 1.43 in the data set with HeLa Kyoto [4] (setting [5]) and 0.133 with HeLa Kyoto [4] (cell cycle stage: mitosis).

In the case of “MELQDPKMNGALPSDAVGYRQEREGFLPSRGPAPGSKPVQFMDFEGKTSFGMSVFNLSNAIMGSGILGLAYAMAHTGVIFFLALLLCIALLSSYSIHLLLTCAGIAGIRAYEQLGQRAFGPAGKVVVATVICLHNVGAMSSYLFIIKSELPLVIGTFLYMDPEGDWFLKGNLLIIIVSVLIILPLALMKHLGYLGYTSGLSLTCMLFFLVSVIYKKFQLGCAIGHNETAMESEALVGLPSQGLNSSCEAQMFTVDSQMSYTVPIMAFAFVCHPEVLPIYTELCRPSKRRMQAVANVSIGAMFCMYGLTATFGYLTFYSSVKAEMLHMYSQKDPLILCVRLAVLLAVTLTVPVVLFPIRRALQQLLFPGKAFSWPRHVAIALILLVLVNVLVICVPTIRDIFGVIGSTSAPSLIFILPSIFYLRIVPSEVEPFLSWPKIQALCFGVLGVLFMAVSLGFMFANWATGQSRMSGH [SLC38A5]”, in the data set with HeLa Kyoto [1], the “solubility in G1/S (log2)” value is -0.0136. Moreover, the melting temperature in the data set on HeLa Kyoto [2] (cell cycle stage: G1/S) is 56.1 °C; with HeLa Kyoto [2] (cell cycle stage: mitosis), 53.1 °C. Also, the “solubility change mitosis (log2)” value in the data set with HeLa Kyoto [3] was -0.0437. Also, the thermal stability score with HeLa Kyoto [4] (setting [5]) is -1.85; in the data set with HeLa Kyoto [4] (cell cycle stage: mitosis), -3.24.

Source of the values: the supplement of paper PMC5998384.
